According to PMC3677378:

Key:
[1] = target: E. coli ribosomal post-peptide-release complex (RC; 70S, tRNA^fMet and [Met, stop]-mRNA) (E. coli) (UniProt P0AG67); assay: co-sedimentation; RC or naked 70S (ribosomes 0.5 µM) with RF1 (2 µM) and RF3 (6 µM), 1xHEPES-polymix buffer, 37°C 10 min, no extra added GDP; ultracentrifugation on 30% sucrose cushion, SDS-PAGE, band intensities compared with ribosomal protein S1
[2] = target: E. coli ribosomal post-peptide-release complex (RC; 70S, tRNA^fMet and [Met, stop]-mRNA) (E. coli) (UniProt P0AG67); assay: co-sedimentation; as a1 but with extra GDP titrated in, up to 200 μM extra GDP; ultracentrifugation on sucrose cushion, SDS-PAGE

“release factor 1 (RF1), wild type (from UniProt P0A7I0 1-360) (natural protein)” showed a stoichiometry N (RF1 per S1 (band intensity)) [1] of 1 and a stoichiometry N (RF1 per S1 (band intensity)) [2] of 1.
